Source: the supplement of paper PMC9112550, “Optimization of the antimicrobial peptide Bac7 by deep mutational scanning” (BMC Biology, 2022)

test system: Escherichia coli TOP10; experiment: shrunken log2 fold change of peptide-encoding DNA abundance (4.5 h post-induction vs induction); higher = less antimicrobial activity (less host growth inhibition); details: time post-induction: 4.5 h; library: site-saturation at positions 5, 18, 19, 20
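Note: peptides expressed intracellularly from a pBAD plasmid library in pooled LB shake-flask culture, induced with 0.3% L-arabinose, DNA abundance read by NGS, three biological replicates, DESeq2 with apeglm shrinkage.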

Sequence | shrunken log2 fold change
RRIRMRPPRLPRPRPRPPGYPRP | 0.599
RRIRMRPPRLPRPRPRPPHFPRP | 1.03
RRIRMRPPRLPRPRPRPPIWPRP | 0.512
RRIRMRPPRLPRPRPRPPLIPRP | 0.242
RRIRMRPPRLPRPRPRPPMMPRP | 0.609
RRIRMRPPRLPRPRPRPPPCPRP | 1.73
RRIRMRPPRLPRPRPRPPPSPRP | 1.95
RRIRMRPPRLPRPRPRPPQNPRP | 1.13
RRIRMRPPRLPRPRPRPPQYPRP | 0.465
RRIRMRPPRLPRPRPRPPRCPRP | 1.38
RRIRMRPPRLPRPRPRPPREPRP | 1.19
RRIRMRPPRLPRPRPRPPVCPRP | 0.439
RRIRMRPPRLPRPRPRPPYAPRP | 0.291
RRIRMRPPRLPRPRPRPQAWPRP | -0.0331
RRIRMRPPRLPRPRPRPQCAPRP | 0.645
RRIRMRPPRLPRPRPRPQDSPRP | 0.051
RRIRMRPPRLPRPRPRPQELPRP | 0.0211
RRIRMRPPRLPRPRPRPQERPRP | -0.00224
RRIRMRPPRLPRPRPRPQESPRP | 0.55
RRIRMRPPRLPRPRPRPQFCPRP | 0.0736

Sequence | shrunken log2 fold change
RRIRMRPPRLPRPRPRPQFFPRP | -0.207
RRIRMRPPRLPRPRPRPQFYPRP | -0.263
RRIRMRPPRLPRPRPRPQGAPRP | 0.124
RRIRMRPPRLPRPRPRPQGCPRP | -0.00385
RRIRMRPPRLPRPRPRPQHQPRP | 0.214
RRIRMRPPRLPRPRPRPQINPRP | -0.0723
RRIRMRPPRLPRPRPRPQLLPRP | 0.0491
RRIRMRPPRLPRPRPRPQNCPRP | 0.0712
RRIRMRPPRLPRPRPRPQNPPRP | 0.26
RRIRMRPPRLPRPRPRPQNWPRP | 0.532
RRIRMRPPRLPRPRPRPQPCPRP | 0.376
RRIRMRPPRLPRPRPRPQPEPRP | 0.582
RRIRMRPPRLPRPRPRPQPHPRP | 0.46
RRIRMRPPRLPRPRPRPQPWPRP | 0.561
RRIRMRPPRLPRPRPRPQQSPRP | 0.0524
RRIRMRPPRLPRPRPRPQQVPRP | 0.00763
RRIRMRPPRLPRPRPRPQSRPRP | 0.328
RRIRMRPPRLPRPRPRPQSYPRP | 0.00618
RRIRMRPPRLPRPRPRPQTRPRP | 1.05
RRIRMRPPRLPRPRPRPQTSPRP | 0.339

Sequence | shrunken log2 fold change
RRIRMRPPRLPRPRPRPQTWPRP | 0.39
RRIRMRPPRLPRPRPRPQVTPRP | -0.116
RRIRMRPPRLPRPRPRPQYFPRP | 0.00454
RRIRMRPPRLPRPRPRPQYKPRP | -0.0699
RRIRMRPPRLPRPRPRPQYSPRP | 0.0353
RRIRMRPPRLPRPRPRPRAKPRP | 1.25
RRIRMRPPRLPRPRPRPRAPPRP | 1.18
RRIRMRPPRLPRPRPRPRCNPRP | 0.105
RRIRMRPPRLPRPRPRPRCTPRP | 0.6
RRIRMRPPRLPRPRPRPRFYPRP | 0.322
RRIRMRPPRLPRPRPRPRGDPRP | 1.73
RRIRMRPPRLPRPRPRPRGYPRP | 0.0597
RRIRMRPPRLPRPRPRPRHAPRP | 0.698
RRIRMRPPRLPRPRPRPRHGPRP | 0.83
RRIRMRPPRLPRPRPRPRHYPRP | -0.0487
RRIRMRPPRLPRPRPRPRIQPRP | 0.203
RRIRMRPPRLPRPRPRPRLHPRP | 0.721
RRIRMRPPRLPRPRPRPRLMPRP | -0.0423
RRIRMRPPRLPRPRPRPRMEPRP | 0.0362
RRIRMRPPRLPRPRPRPRMIPRP | -0.0577
